Paper PMC2912147 (Neuron, 2008)

Target: Flag-tagged full length HDAC1 (UniProt Q13547 1-482)
Test: co-IP

Sequence of Flag-tagged full length HDAC1 (Q13547 whole entry): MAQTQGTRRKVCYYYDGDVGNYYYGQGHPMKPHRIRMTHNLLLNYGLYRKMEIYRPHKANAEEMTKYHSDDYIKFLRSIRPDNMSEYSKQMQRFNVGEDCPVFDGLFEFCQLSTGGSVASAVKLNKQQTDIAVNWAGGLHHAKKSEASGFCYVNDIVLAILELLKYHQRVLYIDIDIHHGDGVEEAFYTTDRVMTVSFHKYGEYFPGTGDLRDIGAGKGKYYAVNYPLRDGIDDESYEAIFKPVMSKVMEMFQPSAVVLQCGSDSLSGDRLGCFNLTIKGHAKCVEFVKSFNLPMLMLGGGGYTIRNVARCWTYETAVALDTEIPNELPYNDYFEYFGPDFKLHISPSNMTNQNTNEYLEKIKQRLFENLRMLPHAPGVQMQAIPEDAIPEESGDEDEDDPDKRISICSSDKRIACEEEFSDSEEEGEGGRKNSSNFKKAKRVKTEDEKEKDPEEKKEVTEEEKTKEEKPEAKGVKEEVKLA

fold interaction against p35: > 12 fold
B1: GFP-p25 (full length p25, overexpressed in HEK293T cells) (domain or fragment)
chain: not shown
